# Laboratory results: patent US20210115100A1
# Legend:
# Test in all cases: cell-based or functional assay
# [1] = biological target: human pro-BMP7 protein variant F9 (human) (UniProt P18075)
# [2] = biological target: wild type human mature BMP7 (SEQ ID NO: 2) (human) (UniProt P18075)
# [3] = biological target: wild type human pro-BMP7 (human) (UniProt P18075)
# [4] = biological target: human mature BMP7 protein variant F9 (SEQ ID NO: 8) (human) (UniProt P18075)
# Chain of human mature BMP7 protein variant F9 (SEQ ID NO: 8) (human) (P18075 other isoform, or with tags, fused parts or gaps mutant): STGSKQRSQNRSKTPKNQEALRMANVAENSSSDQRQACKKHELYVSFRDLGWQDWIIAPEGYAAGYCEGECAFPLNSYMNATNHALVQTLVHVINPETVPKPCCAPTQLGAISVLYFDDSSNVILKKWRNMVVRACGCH
# Chain of human pro-BMP7 protein variant F9 (human) (P18075 other isoform, or with tags, fused parts or gaps mutant, chain 1 of 2): as the sequence (P18075 other isoform, or with tags, fused parts or gaps mutant) above
# Chain of human pro-BMP7 protein variant F9 (human) (P18075 other isoform, or with tags, fused parts or gaps mutant, chain 2 of 2): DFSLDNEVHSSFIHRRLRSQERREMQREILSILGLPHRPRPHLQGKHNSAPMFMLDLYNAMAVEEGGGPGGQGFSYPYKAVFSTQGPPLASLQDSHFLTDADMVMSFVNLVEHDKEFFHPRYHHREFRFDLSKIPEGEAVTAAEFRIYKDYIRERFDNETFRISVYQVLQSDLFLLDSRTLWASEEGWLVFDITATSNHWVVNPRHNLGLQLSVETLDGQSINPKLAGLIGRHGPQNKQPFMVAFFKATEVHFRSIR
# Chain of wild type human pro-BMP7 (human) (P18075 293-431, chain 1 of 2): as the sequence (P18075 other isoform, or with tags, fused parts or gaps mutant) above, with G65Y, L86I, V93F, G110N, W128Y counted along it
# Chain of wild type human pro-BMP7 (human) (P18075 other isoform, or with tags, fused parts or gaps, chain 2 of 2): as the sequence (P18075 other isoform, or with tags, fused parts or gaps mutant, chain 2 of 2) above
# Chain of wild type human mature BMP7 (SEQ ID NO: 2) (human) (P18075 293-431): as the sequence (P18075 other isoform, or with tags, fused parts or gaps mutant) above, with G65Y, L86I, V93F, G110N, W128Y counted along it
"% inhibition, 0.1X molar excess of inhibitor (hepcidin promoter luciferase, Hep3B2 HepPro luc cells) [1]","% inhibition, 1X molar excess of inhibitor (hepcidin promoter luciferase, Hep3B2 HepPro luc cells) [1]","% inhibition, 10X molar excess of inhibitor (hepcidin promoter luciferase, Hep3B2 HepPro luc cells) [1]","% inhibition, 100X molar excess of inhibitor (hepcidin promoter luciferase, Hep3B2 HepPro luc cells) [1]","% inhibition, 0.1X molar excess of inhibitor (hepcidin promoter luciferase, Hep3B2 HepPro luc cells) [2]","% inhibition, 1X molar excess of inhibitor (hepcidin promoter luciferase, Hep3B2 HepPro luc cells) [2]","% inhibition, 10X molar excess of inhibitor (hepcidin promoter luciferase, Hep3B2 HepPro luc cells) [2]","% inhibition, 100X molar excess of inhibitor (hepcidin promoter luciferase, Hep3B2 HepPro luc cells) [2]","% inhibition, 0.1X molar excess of inhibitor (hepcidin promoter luciferase, Hep3B2 HepPro luc cells) [3]","% inhibition, 1X molar excess of inhibitor (hepcidin promoter luciferase, Hep3B2 HepPro luc cells) [3]","% inhibition, 10X molar excess of inhibitor (hepcidin promoter luciferase, Hep3B2 HepPro luc cells) [3]","% inhibition, 100X molar excess of inhibitor (hepcidin promoter luciferase, Hep3B2 HepPro luc cells) [3]","% inhibition, 0.01X molar excess of inhibitor (hepcidin promoter luciferase, Hep3B2 HepPro luc cells) [4]","% inhibition, 0.1X molar excess of inhibitor (hepcidin promoter luciferase, Hep3B2 HepPro luc cells) [4]","% inhibition, 1X molar excess of inhibitor (hepcidin promoter luciferase, Hep3B2 HepPro luc cells) [4]","% inhibition, 10X molar excess of inhibitor (hepcidin promoter luciferase, Hep3B2 HepPro luc cells) [4]",Binder
-15.2%,-18.3%,-23.6%,-28.1%,-12.2%,36.7%,72.8%,73.7%,-5.3%,24.8%,84.8%,87.3%,-2.6%,-7.2%,-6.9%,-1.2%,"Noggin (protein, UniProt Q13253 28-232, looked up, species assumed) Noggin: QHYLHIRPAPSDNLPLVDLIEHPDPIFDPKEKDLNETLLRSLLGGHYDPGFMATSPPEDRPGGGGGAAGGAEDLAELDQLLRQRPSGAMPSEIKGLEFSEGLAQGKKQRLSKKLRRKLQMWLWSQTFCPVLYAWNDLGSRFWPRYVKVGSCFSKRSCSVPEGMVCKPSKSVHLTVLRWRCQRRGGQRCGWIPIQYPIISECKCSC"
-35.4%,-27.5%,7%,,-23.6%,-25.9%,37.6%,77.4%,-10.2%,4%,17.4%,81.6%,2.3%,7%,7.3%,28.5%,"Coco (protein, UniProt Q8N907 23-189, looked up, species assumed) DAN domain family member 5: RPEPQSPRPQSWAAANQTWALGPGALPPLVPASALGSWKAFLGLQKARQLGMGRLQRGQDEVAAVTLPLNPQEVIQGMCKAVPFVQVFSRPGCSAIRLRNHLCFGHCSSLYIPGSDPTPLVLCNSCMPARKRWAPVVLWCLTGSSASRRRVKISTMLIEGCHCSPKA"
